Measurements reported in patent publication US20240026407A1, “MODIFICATION OF SAPONINS” (GLAXOSMITHKLINE BIOLOGICALS SA, priority 2020, published 2024).

B1: 1002 (protein, listed as Flavobacterium johnsoniae)
chain: MKNFKNILLGLSFLITFISNGQILPVRLTTEMAENPLAVIENQPKFSWQLISKESDVSQVAYLILVASSEEKLNNDDGDIWNSGRVNTDKNLHIVYSGKPLKSETKYFWKVKVWNQLGKISKWSKTASFRTASLESDLNPIWIGAITKADSHLPEGRNYHTATFNREKKMSFINASDSLARRSIMLRKPFEVEKAVKEAVVYISGLGHYELTINGKKVGNSQFAPLWTDYDKTVNYNVYELSAKEFQKGDNVIGVLLGNGMYNTLAERYTKFFVSFGPPTLFFKMKIKYNDGSEEIIKSDRTWKYSKSPITYNSIFGGEDYNANLEQKDWNRKGFKDRDWKKVVIQEAPKGILRPQTAPPVTIQKQYEVKTVKELKPNFYVFDMGQNLSGFPTIKVKGKRGQTIRVWVAEGLNEEGTIAQGRSGKPYYYDYTLKGKDVEEWTPKFSFYGYQYVQIENINYKEDKNKEFPTLVDLKSNFIYNSAGEAGSFACSNEIFNKTHELINNSIKSNFQSVFTDCPQREKLGWLEEIQLNGPSLMFNYNLQTFLPATMQNISDSQRENGLIPTIVPEYVIFGGDFTDSPEWGVTGVILPWMYYEYYGDASLLEKYFPVMKNYVDYLGTKATNHIVSHGLGDWYDYGTHPAGYSKNSPIALSATSHYYYGAFLVAKASKLLGKTEDFEKYNTLASEIKTAFNAAFFNEETKQYGTSSQFSNAVPIFMDIVEPQYKEAVMQNLLADIKEKGDRLTTGDVGNRYLFQTLARNGENETMYRMHNHYDAPGYGFQIKFGLTTLTEQWDPRKGNSWNHFMLGQIEEWFYQSLAGIMSDPEKPGFKHFFIQPEVVGDMTFAKADYQSVYGKIASSWEKKDGKFILTVQIPVNTTATIKLPVAKNSEIKMDGKRVRAGFDEKAQKPVLELGSGIYTIECTI
B2: 1048 (protein, listed as Klebsiella oxytoca)
chain: MSQAIQHNSQVMMTRHPNFLRTAEALRPALSRQAHPPIAVVEAHADAAALFGWRAEPVSTLAAFYQRELSSGDSVIIDFGSHYVGYLHFLCQSAGSPPDAPAHLQLTFGETLSEVCEPFSDYQGWLSSSWLQQQDLWLDVLPAEIDLPRRYCFRYLKVEVKAVSRKFRLQFTQIEVNAVTSASGACPAATTSDPQLRAIDNVAVLTLQNCMQEVFEDGPKRDRRLWLGDLRLQALVNDVTFARHDLVRRCLYLFAGHTREDGMVSANVFVQPDVIADDTFLFDYSLFFVDVLYNYLQSAEDMATARELWPTARRQVELALTRCDASGVVRDSDDWWVFIDWQASLNKQAAAQGVLIYCLQRAIWLAERFEPELAVSYRQRLQQLKSAALDALWDPQQGFYVSGARRQVSWASQIWLVLAEVGTPQQRREIMRNLEKNPPAVAMNTPYLRHHYIAALLQCGLRDEAIAQIKAYWGAMVDYGADTFWEIFDPAHPDFSPYGSKLINSYCHAWSCTPAWFIRQYGL
B3: 1037 (protein, listed as Pedobacter heparinus)
chain: MNLKRHILLTAILMLNLSIAFSQVTLQNLRCEMLQNPLGIDVARPRLSWQIASTRNDVQQTAYHILVASSLAKLTENDADIWNSGKVNSAESLYNLYAGQTLKSKNKYYWKVKVYTSKGESSWSQPAFWLMGLLHYKDWEGRWIGFDRFFTGDNEAGARLSARYFRKEFSTTKTVASATAYLMGMGLYELYIDGQKIGDQVLAPTATDYTKNIKYNTLDVTEQLRQGGNHAIGVILGNGRFFAMRQSKAYKVKTFGLPKLLLQVNIKYTDGSTATIKTDDTWKGTADGPILANNEYDGEIYDARKEFKGWSEPGFKEDKWLRAEYVQEPGGTYEAQLNEGMKVMKTLSPVSITRRPNGNYILDFGQNFSGWVKFNVKGPRGTSVSLRFAESLEPNGELFRTNLRDARATDIYTLKGEGTETWAPRFTYQGFRYVELNGYPGVPQKSDFSGCLVYDDMKTAGTFESSNSLLNQIFKNAWWGIASNYKGMPVDCPQRNERQPWLGDRTVGAYGESFLFDNTALYKKWLDDIRYAQKEDGAIPDVAPAFWRYYSDNVTWPATLLFVADMLYRQTGDSTVIRKNYPAVKKWMSYMKDRYMSSEGIMTKDSYGDWCAPPATAEDGKGVNADQKHPSALIATAYYYHLANMMAGYSALTGNAGDREGYTRLAAEVKNAFNRKFYNSQGYYGDNKLTDNLLPVYFGLVEEADKGRVVMQICSIIEEKNNGHLSTGLIGTQFLMRTLTEAGRPDLAYRIASQKTYPSWGYMIENGATAIWELWNGNTAAPKMNSQNHVMMLGDLMIWYYENLAGIKAAAPGFKEITMKPELIEGLNNVTAGYQSVYGLIKSSWTKTGKKFSWNISIPPNTRAKAYLPASMQSQVKKGATADGAKYIMAENGRVVFELKSGEYAFVVEQ
B4: 1062 (protein, listed as Streptosporangium roseum)
chain: MIGNAVHCAPAQTSPSRSDPAPPRLTPYGLRCEHRQTPLGVGEPRPLLSWRLASARAGDDPVAYELEVGDWSSGRVEDPAAIGAVYGGPPLLPRTRYAWRVTVWARDGAEGSAESWFETGQDVWQASWIAHDPAAVAHMDPPTEGDQALSHHGLLPCPQLRTSFESTAGVTRARLLISAKGLYEARVNGHRAGDAELAPGWTDYRRRIQYQVHDVTPFLLDGENVLAATVADGWWSGFTGFDPRRPGYHYGRFPELIAELHLTFEDGSTRVVATGEGWRTGHGRVRYGDLLKGECHDARAETPGWDLPGFDDSSWRPAVVTGDDHSLLVASRDEPVRALGELLPVSSVLVRPGVHLVDFGQNIAGRVRLAVRDQEPGRRVTVRHGETLDGEDRLHTANLRTADATDVLITAGGAEEVFEPRFTYHGFRYAEVSGIDRLDDIRAIVLHSDTPWTGTFECSDPEINRLHDNIGWGQRGNFVSVPTDCPQRDERLGWLADAQVFLPTACFNADVSGFFSKWMRDVVDAQSPEGGFSNVAPLLSGVADEGAPGWADAGVLVPWHLYRVYGDDRFLDVDSMVRWVDFVARHNPDLIWRHRTGPHFADWLAPGPATPREVLATAFFHRSAALTAEAARVRGLYGEAERMGALADRVRAAFAAAFVGDGGLVEGDTQTGYLLALAFGLLTPEQGRGAAARLAALVEESGPLTGFLGVNLLCPVLSAHGRDDLAHALLRRTDPPSWLYQVRHGATTVWERWDGVGAASMNSFNHYAFGSIGEWLYSGVAGIAQAPGSVAFREVVIRPLPGDLSRAGASYESARGLISVSWHNDAEGFRLQTRIPPGATATVHLPGGETRRVTSGDHIFELVRGEKA
B5: 1029 (protein, listed as Rhodococcus jostii)
chain: MTTPTHLRLEHLRPGEPCGTTHPRLSWRLPTGSTGQQAYQVRVAGAFDRTSSTLFTTEIIEGRDHVLVRPWTATHPAPTAGEARTWQVRCWTDLGPSDWSEPATWVTGLLHGGDLTADWIEPYEPDVPPLGHRPVYRLRASWRPRAEIAHASLFATAHGIYEFFVNDVRVGDHELTPGFTSYRAHLQVQHFDVTDLLHPEHNDLGILLSDGWFRGRHGFERHGDSFGDRVAALAELHVRYADGTSERFGTGDGWTSTPSEIDAADLMDGQRVDLRRVPAGEVRHPAVVARGGLYDDRSRLTTGVAPPVRRIETLAAVAVTEPRPGTYVVDFGQNVNGWVTAADLGPAGTHATLTHGESLAADGSVDTDHLRAFEFATGTGLPAGQVDHVVSSGRAGEAFESRHTTHGFRYVQFDGLATKPGPGSVTAAVVHTDLEQVGSFGCDNDRLAKLHAAAVWSFRGNACDVPTDCPQRERSGFTGDWQVYVETAAFTHDVAGFSDKWLRDLAADQWPDGTVPNIVPNPAGNQPSGNHFADIANGSAGWGDAAVIVPWQLWRLYGDVEVLERQYDSMTRWVERAAGAARDRRHPDRARARPTPDAHEEYLWDTGFHWGEWLEPDEIPAPDPARDHSVVATAYLARSAELLAQIAGVLGRDRDECRYAAIAAGAVRAWQREFITPEGTLTHPTQANYVRALEFDLVPAEGRRRFADELAQLLVDNDYHLGTGFLATGMLLPALARNGHLDTAYRVLLSTGNPSWMEMIDRGATTIWERWDGVDENGRATASLNHYAKGAVISFLHQFVAGLRPAETTGPHTVGYRRFVVDPRPGGDINTAHAEHCSPYGNIAVRWTIADDVFTLSLTVPSGSECELRLGDTTELLRSGTYTRTCPAARVTQRSSRASPTR
B6: 1000 (protein, listed as Aspergillus terreus)
chain: MALSISQVAFEHHRTALGIGETQPRVSWRFDGNVSDWEQRAYEIEVKRAGHDADVFRSESSDSVLVPWPSSPLQSGEEATVRVRSFGSDGQHDTPWSDAVTVEPGLLTPDDWHDAVVIASDRPTEVDATHRPIQFRKEFSVDDSYVSARLYITALGLYEARINDQRVGDHVMAPGWQSYQYRHEYNTYDVTDLLKQGPNAIGVTVGEGWYSGRIGYDGGKRNIYGDTLGLLSLLVVTKSDGSKLYIPSDSSWKSSTGPIISSEIYDGEEYDSRLEQKGWSQVGFNSTGWLGTHELSFPKERLASPDGPPVRRVAEHKLANVFSSASGKTVLDFGQNLVGWLRIRVKGPKGQTIRFVHTEVMENGEVATRPLRQAKATDHFTLSGEGVQEWEPSFTYHGFRYVQVDGWPADTPLDENSVTAIVVHSDMERTGYFECSNPLISKLHENILWSMRGNFFSIPTDCPQRDERLGWTGDIHAFSRTANFIYDTAGFLRAWLKDARSEQLNHSYSLPYVIPNIHGNGETPTSIWGDAIVGVPWQLYESFGDKVMLEEQYGGAKDWVDKGIVRNDVGLWDRSTFQWADWLDPKAPADDPGDATTNKYLVSDAYLLHSTDMLANISTSLSKGEEASNYTEWHAKLTKEFQKAWITSNGTMANETQTGLALPLYFDLFPSAEQAQSAAKRLVNIIKQNDYKVGTGFAGTHLLGHTLSKYGESDAFYSMLRQTEVPSWLYQVVMNGTTTWERWDSMLPNGSINPGQMTSFNHYAVGSVGSWLHEVIGGLSPAEPGWRRINIEVVPGGDLQQASTKFLTPYGMASTKWWLDGQDQSCGGFDFHLVAEVPPNTRATVVLPGKGGEKVDVGSGVHEYHVRCVKL

Tests used:
Format in all cases: biochemical, Quillaja saponaria
[1] = Experiment 6-1: screening of rhamnosidases for derhamnosylation of saponins in treated bark extract (2%), QS-17 2296 to QS-18 2150 (PAR %); details: TBE 2%, pH 7.5, 30 degC, 18 h; TIC peak area ratio percent of rhamnosylated starting saponin to derhamnosylated product, LCMS/MS; negative controls 4.876, 5.225
[2] = Experiment 6-1: screening of rhamnosidases for derhamnosylation of saponins in treated bark extract (2%), desglucosyl-QS-17 2134 to QS-21 1988 (PAR %); details: TBE 2%, pH 7.5, 30 degC, 18 h; TIC peak area ratio percent, LCMS/MS; negative controls 2.719, 2.158
[3] = Experiment 6-1: screening of rhamnosidases for derhamnosylation of saponins in treated bark extract (2%), QS-17 2310 to QS-18 2164 (PAR %); details: TBE 2%, pH 7.5, 30 degC, 18 h; TIC peak area ratio percent, LCMS/MS; negative controls 3.061, 2.429
[4] = Experiment 6-1: specificity of rhamnosidases towards other rhamnose residues (C3 saccharide rhamnose, C28 saccharide rhamnose); details: TBE 2%, pH 7.5, 30 degC, 18 h; LCMS/MS; negative controls 0.18, 0.17

Row | Molecule | QS-17 (PAR %) [1] [%] | Peak75 (PAR %) [2] [%] | Peak57 (PAR %) [3] [%] | ratio PP/QS-21 [4]
1 | B1 | 4.922 | 2.538 | 2.843 | 0.16
2 | B2 | 5.007 | 2.441 | 2.465 | 0.17
3 | B3 | 4.972 | 2.424 | 2.764 | 0.17
4 | B4 | 4.916 | 2.410 | 2.941 | 0.18
5 | B5 | 4.926 | 2.069 | 3.334 | 0.16
6 | B6 | 5.010 | 2.788 | 3.119 | 0.16
